Data from the supplement of paper PMC10724198.
± gives the standard deviation of the averaged measurements.

tested on: Saccharomyces cerevisiae; assay: protein stability index of tFT-peptide fusion (C-terminal peptide) (PSI (0-1 scale)); higher = more stable (slower turnover); settings: genetic background: wild type; temperature: 30 C
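Also: PSI is a weighted mean of sequencing reads over stability bins, variants kept only with over 10 reads, mCherry proximal and sfGFP distal, peptide attached via GGGS linker.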

Row | Sequence | protein stability index
1 | PPLPPPIPLRPP | 0.539 ± 0.02
2 | PPLPPPLPHRPL | 0.716 ± 0.078
3 | PPLPPPPLLPAP | 0.726 ± 0.019
4 | PPLPPPPSPALL | 0.75 ± 0.019
5 | PPLPPPTPRPAP | 0.754 ± 0.058
6 | PPLPPPVYHSLP | 0.6855 ± 0.0027
7 | PPLPRPPLPTSL | 0.649 ± 0.045
8 | PPLPYPCPPVFV | 0.581 ± 0.012
9 | PPLRPPAPEPSP | 0.659 ± 0.0092
10 | PPLSHPPPPLPL | 0.681 ± 0.037
11 | PPLSLRPDLPVF | 0.649 ± 0.0098
12 | PPLSPPHRPPHS | 0.71 ± 0.065
13 | PPLSPSLPPSPS | 0.681 ± 0.0089
14 | PPLTSSVCFSLI | 0.665 ± 0.098
15 | PPNGAATTQDRL | 0.699 ± 0.011
16 | PPNPSTPSACPP | 0.717 ± 0.052
17 | PPPAPLPLPAST | 0.645 ± 0.019
18 | PPPAPLRSLSTP | 0.701 ± 0.024
19 | PPPAPPPPLPPR | 0.688 ± 0.028
20 | PPPAPRPPLSLP | 0.621 ± 0.017
21 | PPPAPSPLPLFP | 0.7 ± 0.045
22 | PPPAPTQTALPP | 0.7028 ± 0.0057
23 | PPPATNSLPGFE | 0.672 ± 0.0099
24 | PPPAWTPPPRTA | 0.7163 ± 0.001
25 | PPPDHSPPPCPP | 0.6857 ± 0.0037
26 | PPPDSSLPLGSP | 0.688 ± 0.0081

Row | Sequence | protein stability index
27 | PPPGPLFPSFPL | 0.663 ± 0.051
28 | PPPGPNPPSSPS | 0.758 ± 0.036
29 | PPPGPRQRPPPH | 0.665 ± 0.087
30 | PPPHASLSHCHS | 0.687 ± 0.11
31 | PPPHGPPPPPLP | 0.648 ± 0.055
32 | PPPHHPIMPAKQ | 0.63 ± 0.027
33 | PPPHPPLPTFDP | 0.707 ± 0.05
34 | PPPHPPPLAIPP | 0.767 ± 0.075
35 | PPPISPRPPRRA | 0.708 ± 0.0094
36 | PPPLCSIPPILL | 0.705 ± 0.034
37 | PPPLHPPPPPPA | 0.704 ± 0.037
38 | PPPLLPHLLLPP | 0.611 ± 0.12
39 | PPPLLSHPFLPP | 0.69 ± 0.057
40 | PPPLPAPPFSVF | 0.649 ± 0.028
41 | PPPLPLPPITPT | 0.53 ± 0.078
42 | PPPLPPGPALPL | 0.732 ± 0.012
43 | PPPLPPICTRPI | 0.627 ± 0.099
44 | PPPLPPPILLRF | 0.598 ± 0.024
45 | PPPLPPPPLPGL | 0.676 ± 0.0084
46 | PPPLPPPSPCPL | 0.702 ± 0.018
47 | PPPLPPSPLLPP | 0.701 ± 0.019
48 | PPPLPRPFPPFP | 0.697 ± 0.019
49 | PPPLPSPLPLPP | 0.644 ± 0.033
50 | PPPLRLPQSRLP | 0.722 ± 0.09
51 | PPPLSPFTTPPS | 0.7493 ± 0.00077
52 | PPPLSQSPPSRR | 0.612 ± 0.029

Row | Sequence | protein stability index
53 | PPPLTSPPHPPP | 0.724 ± 0.029
54 | PPPPAPPPAPPP | 0.558 ± 0.019
55 | PPPPAPYPNYYS | 0.542 ± 0.0062
56 | PPPPCPSYLPPS | 0.693 ± 0.046
57 | PPPPFAAALSTP | 0.69 ± 0.039
58 | PPPPFLCSPFVA | 0.6905 ± 0.00081
59 | PPPPGLPSSPPP | 0.625 ± 0.051
60 | PPPPHAPSASPP | 0.668 ± 0.022
61 | PPPPHSFTPSGH | 0.673 ± 0.12
62 | PPPPLPASHPSP | 0.707 ± 0.044
63 | PPPPLPHPALPP | 0.675 ± 0.04
64 | PPPPLPPLPGTL | 0.657 ± 0.045
65 | PPPPLPPPPVLT | 0.7 ± 0.051
66 | PPPPLPPPSPPL | 0.7319 ± 0.0043
67 | PPPPPAPPPLCY | 0.663 ± 0.045
68 | PPPPPHHRPPSS | 0.709 ± 0.077
69 | PPPPPHLPPLTP | 0.711 ± 0.054
70 | PPPPPHPRSPLS | 0.738 ± 0.037
71 | PPPPPHPTSPFP | 0.751 ± 0.048
72 | PPPPPHVHPPSP | 0.689 ± 0.042
73 | PPPPPLPALPLL | 0.84 ± 0.081
74 | PPPPPLPPPPPP | 0.593 ± 0.021
75 | PPPPPLSLLLPP | 0.703 ± 0.032
76 | PPPPPNPIPPTF | 0.713 ± 0.028
77 | PPPPPPLLPPPA | 0.7302 ± 0.0037
78 | PPPPPPLPAPPH | 0.693 ± 0.029

Row | Sequence | protein stability index
79 | PPPPPPPFCLAP | 0.718 ± 0.0079
80 | PPPPPPPHSSLS | 0.709 ± 0.0078
81 | PPPPPPPLAPPL | 0.685 ± 0.021
82 | PPPPPPPLPHPP | 0.595 ± 0.058
83 | PPPPPPPLRFIF | 0.618 ± 0.035
84 | PPPPPPPPFSHS | 0.712 ± 0.022
85 | PPPPPPPPLPAP | 0.664 ± 0.018
86 | PPPPPPPPPLLP | 0.7031 ± 0.006
87 | PPPPPPPPPSTP | 0.744 ± 0.016
88 | PPPPPPPPRRPP | 0.595 ± 0.047
89 | PPPPPPPRGPPR | 0.627 ± 0.014
90 | PPPPPPPRPLTP | 0.68 ± 0.059
91 | PPPPPPPSPPFS | 0.783 ± 0.031
92 | PPPPPPPSSPPP | 0.732 ± 0.012
93 | PPPPPPQTPRPR | 0.683 ± 0.061
94 | PPPPPPSPLPPY | 0.703 ± 0.01
95 | PPPPPPSPPRLP | 0.592 ± 0.03
96 | PPPPPPTPPSLS | 0.7449 ± 0.001
97 | PPPPPRPRSLLS | 0.711 ± 0.063
98 | PPPPPSSRPLSN | 0.627 ± 0.079
99 | PPPPPTPPPARP | 0.695 ± 0.054
100 | PPPPPVLPNRIP | 0.781 ± 0.04
101 | PPPPQPTAPPNP | 0.717 ± 0.049
102 | PPPPSLLPLSLP | 0.608 ± 0.02
103 | PPPPSPPLTRSL | 0.783 ± 0.08
104 | PPPPTLPPPPLS | 0.722 ± 0.14

Row | Sequence | protein stability index
105 | PPPPTTATRQQT | 0.691 ± 0.016
106 | PPPQLRPLPQSL | 0.704 ± 0.018
107 | PPPQYILPPRFP | 0.691 ± 0.017
108 | PPPRPCRAPAAA | 0.668 ± 0.089
109 | PPPRPGLPAPVP | 0.683 ± 0.05
110 | PPPRPLPVLFLP | 0.611 ± 0.06
111 | PPPRPPHAPFSL | 0.702 ± 0.039
112 | PPPRPPHGPLPY | 0.658 ± 0.037
113 | PPPRPPPPSCPP | 0.685 ± 0.092
114 | PPPRPPRPPLPS | 0.727 ± 0.02
115 | PPPRPTPAPPRV | 0.65 ± 0.032
116 | PPPRSPLFSLPP | 0.678 ± 0.032
117 | PPPSALPPLPQP | 0.712 ± 0.01
118 | PPPSCPPPPSRS | 0.7754 ± 0.0068
119 | PPPSHSLPSLPI | 0.626 ± 0.033
120 | PPPSLPPLPSPS | 0.725 ± 0.027
121 | PPPSLPPPSATA | 0.689 ± 0.087
122 | PPPSLSPAPAPP | 0.736 ± 0.027
123 | PPPSPCHPPSPP | 0.67 ± 0.12
124 | PPPSPPDCLPLP | 0.649 ± 0.086
125 | PPPSPPLPRHLA | 0.746 ± 0.06
126 | PPPSPPSVPRAS | 0.643 ± 0.027
127 | PPPSRPPQLHPA | 0.605 ± 0.021
128 | PPPSSPPTHLTS | 0.678 ± 0.012
129 | PPPSSPTPPHSR | 0.738 ± 0.082
130 | PPPSTRSNPGLD | 0.745 ± 0.028

Row | Sequence | protein stability index
131 | PPPSVPPSLTPP | 0.693 ± 0.03
132 | PPPTHPTSTSSI | 0.699 ± 0.02
133 | PPPTLPPPSPFP | 0.705 ± 0.038
134 | PPPTPKITPMSI | 0.6871 ± 0.0018
135 | PPPTPPSRILPA | 0.699 ± 0.016
136 | PPPTPRPAFLPP | 0.6969 ± 0.0037
137 | PPPTPSDPQNSS | 0.644 ± 0.007
138 | PPPWSFPCPSAS | 0.778 ± 0.084
139 | PPPYPRSTPFVP | 0.6774 ± 0.005
140 | PPQALPHSSKQA | 0.6931 ± 0.0025
141 | PPRLHAPPPSPP | 0.716 ± 0.016
142 | PPRPLLPTPSPL | 0.7 ± 0.056
143 | PPRPLPARRLSF | 0.753 ± 0.081
144 | PPRPLPPPPPPT | 0.716 ± 0.017
145 | PPRPPPSPPLPP | 0.696 ± 0.062
146 | PPRPPSPPPPSP | 0.632 ± 0.02
147 | PPRPRPPSSPST | 0.641 ± 0.0099
148 | PPRPSPPPLPPS | 0.683 ± 0.051
149 | PPRRAPPPIRLP | 0.746 ± 0.074
150 | PPRSFLPPRFSW | 0.702 ± 0.066
151 | PPRSFPGTPLIA | 0.67 ± 0.069
152 | PPRSLPPPTSPL | 0.731 ± 0.011
153 | PPRTPFSLPPPA | 0.73 ± 0.054
154 | PPRTSPRLLPPP | 0.686 ± 0.0069
155 | PPRVFGFFPFPP | 0.774 ± 0.079
156 | PPSAPLPTLLHH | 0.722 ± 0.094

Row | Sequence | protein stability index
157 | PPSAPPLPPLPL | 0.69 ± 0.014
158 | PPSFLLVCPRPP | 0.6897 ± 0.0068
159 | PPSHGRSSQSPR | 0.731 ± 0.1
160 | PPSLAPPPTSRP | 0.679 ± 0.054
161 | PPSLGPHSTSCD | 0.715 ± 0.071
162 | PPSLPPLPPSPA | 0.656 ± 0.085
163 | PPSLTPAALPAA | 0.745 ± 0.072
164 | PPSPASASPDRR | 0.695 ± 0.022
165 | PPSPELALSLGH | 0.673 ± 0.038
166 | PPSPHPSLPPPR | 0.668 ± 0.024
167 | PPSPLQGRICFV | 0.698 ± 0.032
168 | PPSPLSTLPSPH | 0.679 ± 0.045
169 | PPSPPPAFPPPA | 0.64 ± 0.059
170 | PPSPPPPPAAST | 0.768 ± 0.13
171 | PPSPPSLRSSPP | 0.744 ± 0.13
172 | PPSPPVPRFSLL | 0.69503 ± 0.00011
173 | PPSPPVRPPLLA | 0.617 ± 0.14
174 | PPSPSPPPYHFP | 0.676 ± 0.023
175 | PPSPSSLPPPPL | 0.733 ± 0.0075
176 | PPSPTPPLPSCP | 0.702 ± 0.029
177 | PPSRDRSGCISV | 0.709 ± 0.021
178 | PPSRDSHPPPPP | 0.627 ± 0.02
179 | PPSRLLFPSPPA | 0.683 ± 0.055
180 | PPSRLSPPPPPS | 0.71 ± 0.016
181 | PPSRPLPALPFP | 0.676 ± 0.097
182 | PPSRPLPSPLPP | 0.631 ± 0.03

Row | Sequence | protein stability index
183 | PPSRPPAPSPRS | 0.695 ± 0.037
184 | PPSRPPPARREP | 0.7 ± 0.022
185 | PPSRPSASFALL | 0.743 ± 0.026
186 | PPSSYGCGRQMP | 0.645 ± 0.038
187 | PPTAPCPPPLPP | 0.645 ± 0.012
188 | PPTFFQRSPLRP | 0.681 ± 0.033
189 | PPTFLPLPSSPP | 0.651 ± 0.079
190 | PPTHPPLPPPLL | 0.689 ± 0.07
191 | PPTPPPNPPSRY | 0.715 ± 0.021
192 | PPTPPPPRSTPS | 0.766 ± 0.035
193 | PPTPPPVPPPWS | 0.669 ± 0.044
194 | PPTPPTARPIVL | 0.677 ± 0.018
195 | PPTRLPQGVSWR | 0.702 ± 0.066
196 | PPVLSLGPPFTS | 0.73 ± 0.11
197 | PPYFFPSDPRPD | 0.748 ± 0.067
198 | PQIVRSFLLFPP | 0.69 ± 0.0076
199 | PQPPTPLTPTPP | 0.697 ± 0.089
200 | PQSIHASIYFRL | 0.634 ± 0.02
201 | PQTYHRPPPPLH | 0.702 ± 0.028
202 | PQYLALLRTSIP | 0.739 ± 0.043
